Reference: patent US20200048693

System: dsDNase (shrimp double strand-specific DNase)
Assay: cleavage_in_vitro
Details: DNA strand of hybrid cleaved, RNA strand almost not; First-Strand buffer, 37 C

CGCCATCGGAGGTTC / GAACCUCCGAUGGCG [RNA-DNA hybrid dual probe]
relative cleavage activity (fraction of dsDNA activity): 0.5
